Publication PMC8420576 (2021)

B1: VHH antibody Re9F06 (VHH)
VHH: QVQLVESGGGLVQAGGSLRLSCAASGRTFSNDALGWFRQAPRKEREFVAAINWNSGTYYADSVKGRFTISRDNAKNTVYLQMNSLKPEDTAVYSCAAASDYGLPREDFLYDYWGQGTQVTVSS
B2: VHH antibody Re5D06, labeled with two PEG11-biotins (VHH)
VHH: QVQLVESGGGLVQPGGSLRLSCAASGITLDYYAIGWFRQAPGKEREGVSRIRSSDGSTNYADSVKGRFTMSRDNAKNTVYLQMNSLKPEDTAVYYCAYGPLTKYGSSWYWPYEYDYWGQGTQVTVSS

Columns and labels:
Assay in all cases: BLI
[1] = target: T1, SARS-CoV-2 Spike RBD (residues 334–527), C-terminal Avi-His6 tag, biotinylated (SARS-CoV-2, UniProt P0DTC2 334-527, biotin on the Avi-tag)
[2] = target: T1, SARS-CoV-2 Spike RBD (residues …); remark: listed apart in the source
[3] = target: T2, SARS-CoV-2 RBD wt (GenScript Z03479) (SARS-CoV-2, UniProt P0DTC2 319-541)
[4] = target: T2, SARS-CoV-2 RBD wt (GenScript Z03479); remark: listed apart in the source

Row | Binder | Kd [1] [nM] | koff [2] [s⁻¹] | Kd [3] [nM] | koff [4] [s⁻¹]
1 | B1 | 270 | 0.00045 |  | 
2 | B2 |  |  | < 0.01 | 1.6e-06
